Test results taken from US20140112930A1 (published 2014).

Legend:
Biotin-hBA2 = molecular target: T1, Biotin-hBA2 (human, biotinylated (sites not given)); test: blocking ELISA, biotin-hBA2 to hTie-2
T1 construct: hBA2 consists of two dimers; also called biotinylated hBA2; human bow-Ang2

[1] = molecular target: T2, wild-type Ang-2FD-mFc construct (human, UniProt O15123 282-496); test: SPR 25C, hAng-2FD-mFc captured on anti-mFc, 100 nM analyte
T2 construct: also called WT; hAng-2FD-mFc; not shown: mouse Fc
T2 sequence: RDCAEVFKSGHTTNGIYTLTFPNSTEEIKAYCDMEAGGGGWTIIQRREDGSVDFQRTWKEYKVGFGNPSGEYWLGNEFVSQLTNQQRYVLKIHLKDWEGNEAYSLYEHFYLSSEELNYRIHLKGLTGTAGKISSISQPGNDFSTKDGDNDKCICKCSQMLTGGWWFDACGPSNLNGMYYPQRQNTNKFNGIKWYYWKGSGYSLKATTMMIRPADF

hAng-2FD-mFc S-417-I = molecular target: T3, hAng-2FD-mFc S-417-I (human, UniProt O15123 282-496); test: as above
T3 construct: not shown: mouse Fc
T3 chain: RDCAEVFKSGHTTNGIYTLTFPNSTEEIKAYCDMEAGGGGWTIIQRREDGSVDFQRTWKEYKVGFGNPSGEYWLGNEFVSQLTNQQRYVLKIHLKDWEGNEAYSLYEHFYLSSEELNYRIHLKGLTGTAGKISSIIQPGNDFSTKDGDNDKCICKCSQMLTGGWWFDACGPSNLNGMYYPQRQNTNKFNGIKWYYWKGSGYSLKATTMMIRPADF

hAng-2FD-mFc K-432-N = molecular target: T4, hAng-2FD-mFc K-432-N (human, UniProt O15123 282-496); test: as above
T4 construct: not shown: mouse Fc
T4 chain: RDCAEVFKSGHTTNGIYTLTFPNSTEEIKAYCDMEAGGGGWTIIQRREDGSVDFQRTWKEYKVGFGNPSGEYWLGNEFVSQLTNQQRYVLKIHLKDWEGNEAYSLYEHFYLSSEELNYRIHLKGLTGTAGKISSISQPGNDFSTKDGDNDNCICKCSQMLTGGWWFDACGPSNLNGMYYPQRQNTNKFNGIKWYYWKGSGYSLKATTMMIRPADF

hAng-2FD-mFc I-434-M = molecular target: T5, hAng-2FD-mFc I-434-M (human, UniProt O15123 282-496); test: as above
T5 construct: not shown: mouse Fc
T5 chain: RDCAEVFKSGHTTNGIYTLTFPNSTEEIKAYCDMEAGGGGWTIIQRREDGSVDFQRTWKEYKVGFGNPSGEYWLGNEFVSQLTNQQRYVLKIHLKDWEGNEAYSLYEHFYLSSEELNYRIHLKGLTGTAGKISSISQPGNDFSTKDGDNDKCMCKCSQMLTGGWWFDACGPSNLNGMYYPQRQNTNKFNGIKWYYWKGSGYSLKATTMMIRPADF

hAng-2FD-mFc N-467-G = molecular target: T6, hAng-2FD-mFc N-467-G (human, UniProt O15123 282-496); test: as above
T6 construct: not shown: mouse Fc
T6 chain: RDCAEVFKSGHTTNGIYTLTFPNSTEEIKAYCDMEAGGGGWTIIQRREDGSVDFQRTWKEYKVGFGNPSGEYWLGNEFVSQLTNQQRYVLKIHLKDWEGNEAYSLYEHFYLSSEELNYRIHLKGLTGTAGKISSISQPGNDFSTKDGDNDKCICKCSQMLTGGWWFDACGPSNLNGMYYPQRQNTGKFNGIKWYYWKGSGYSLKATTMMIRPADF

hAng-2FD-mFc F-469-L = molecular target: T7, hAng-2FD-mFc F-469-L (human, UniProt O15123 282-496); test: as above
T7 construct: not shown: mouse Fc
T7 chain: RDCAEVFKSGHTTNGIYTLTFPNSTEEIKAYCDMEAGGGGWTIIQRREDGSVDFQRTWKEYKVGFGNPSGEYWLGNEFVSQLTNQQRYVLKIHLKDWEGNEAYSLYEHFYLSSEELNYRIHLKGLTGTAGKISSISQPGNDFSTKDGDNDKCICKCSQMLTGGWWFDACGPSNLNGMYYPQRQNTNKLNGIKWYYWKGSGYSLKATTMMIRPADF

hAng-2FD-mFc Y-475-H = molecular target: T8, hAng-2FD-mFc Y-475-H (human, UniProt O15123 282-496); test: as above
T8 construct: not shown: mouse Fc
T8 chain: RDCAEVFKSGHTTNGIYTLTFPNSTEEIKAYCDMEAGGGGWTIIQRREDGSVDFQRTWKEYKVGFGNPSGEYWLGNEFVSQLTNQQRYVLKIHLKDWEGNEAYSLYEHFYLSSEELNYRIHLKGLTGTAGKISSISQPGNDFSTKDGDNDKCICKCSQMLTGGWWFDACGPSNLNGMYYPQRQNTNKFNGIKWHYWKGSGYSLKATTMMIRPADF

hAng-2FD-mFc S-480-P = molecular target: T9, hAng-2FD-mFc S-480-P (human, UniProt O15123 282-496); test: as above
T9 construct: not shown: mouse Fc
T9 chain: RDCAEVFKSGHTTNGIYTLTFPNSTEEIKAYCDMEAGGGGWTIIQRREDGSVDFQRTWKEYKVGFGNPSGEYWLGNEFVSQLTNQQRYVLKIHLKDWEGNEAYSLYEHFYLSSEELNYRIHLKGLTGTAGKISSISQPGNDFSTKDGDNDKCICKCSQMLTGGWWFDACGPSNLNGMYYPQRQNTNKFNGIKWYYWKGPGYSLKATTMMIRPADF

T1 sequence (chain, as listed by the source limits assumed): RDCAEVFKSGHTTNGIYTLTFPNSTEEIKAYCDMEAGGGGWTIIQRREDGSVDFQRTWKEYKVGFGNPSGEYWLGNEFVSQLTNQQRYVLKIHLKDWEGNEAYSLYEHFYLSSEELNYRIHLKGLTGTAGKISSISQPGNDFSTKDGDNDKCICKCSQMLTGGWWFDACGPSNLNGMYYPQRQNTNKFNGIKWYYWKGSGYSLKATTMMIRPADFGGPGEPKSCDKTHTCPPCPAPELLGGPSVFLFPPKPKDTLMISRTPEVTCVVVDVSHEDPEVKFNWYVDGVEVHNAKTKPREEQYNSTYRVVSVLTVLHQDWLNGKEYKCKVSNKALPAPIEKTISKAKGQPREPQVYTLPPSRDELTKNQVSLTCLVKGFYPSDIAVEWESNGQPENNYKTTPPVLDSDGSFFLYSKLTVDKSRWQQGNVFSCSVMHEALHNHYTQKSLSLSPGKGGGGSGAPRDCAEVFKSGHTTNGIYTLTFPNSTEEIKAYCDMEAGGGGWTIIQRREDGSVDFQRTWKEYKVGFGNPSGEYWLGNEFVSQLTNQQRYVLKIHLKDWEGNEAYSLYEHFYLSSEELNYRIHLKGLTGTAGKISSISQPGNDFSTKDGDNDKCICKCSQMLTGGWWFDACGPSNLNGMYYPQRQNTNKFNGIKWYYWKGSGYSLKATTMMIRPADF

B1: H1H744N (antibody, V domains shown)
VH: QVQLVQSGVEVKKPGASVKVSCKTSGYTFSNNGFSWVRQAPGQGLEWLGWISGYNGNTNYAQKFQGRVTMTTDTSTSTAYMELRTLRSDDTAVYYCARDQDYSNFHWLDPWGQGTLVTVAS
VL: DIQMTQSPSSVSASVGDRVIITCRASQGLSSWLAWYQQKPGTAPKLLIHSASSLQTGVPSRFSGSGSGTEFALTINSLQPEDFGTYYCQQANSFPLTFGGGTRVEIK
- IC50 (Biotin-hBA2): 0.025 nM
- Kd [1]: 0.0398 nM
- RU [1]: 213 RU
- T ½ [1]: 15.1 h
- Kd (hAng-2FD-mFc S-417-I): 0.0512 nM
- RU (hAng-2FD-mFc S-417-I): 127 RU
- T ½ (hAng-2FD-mFc S-417-I): 26.5 h
- Kd (hAng-2FD-mFc K-432-N): 0.0487 nM
- RU (hAng-2FD-mFc K-432-N): 137 RU
- T ½ (hAng-2FD-mFc K-432-N): 28.2 h
- Kd (hAng-2FD-mFc I-434-M): 0.0318 nM
- RU (hAng-2FD-mFc I-434-M): 213 RU
- T ½ (hAng-2FD-mFc I-434-M): 43.1 h
- Kd (hAng-2FD-mFc N-467-G): 0.0772 nM
- RU (hAng-2FD-mFc N-467-G): 139 RU
- T ½ (hAng-2FD-mFc N-467-G): 16.9 h
- Kd (hAng-2FD-mFc F-469-L): 0.195 nM
- RU (hAng-2FD-mFc F-469-L): 180 RU
- T ½ (hAng-2FD-mFc F-469-L): 3.95 h
- Kd (hAng-2FD-mFc Y-475-H): 0.306 nM
- RU (hAng-2FD-mFc Y-475-H): 247 RU
- T ½ (hAng-2FD-mFc Y-475-H): 2.27 h
- Kd (hAng-2FD-mFc S-480-P): 0.0225 nM
- RU (hAng-2FD-mFc S-480-P): 228 RU
- T ½ (hAng-2FD-mFc S-480-P): 35.5 h
